Results published in patent publication US20150351390A1, “COMPOSITIONS AND METHODS FOR AUXIN-ANALOG CONJUGATION” (PIONEER HI-BRED INTERNATIONAL, INC., priority 2012, published 2015).
Entries after “also recorded” stand apart in the source; their conditions may differ.

Legend:
soybean seedlings = assay: Soybean seedling response to spot infiltrated auxins and conjugates; as to 1st trifoliate leaf curl: key: 0 = no phenotype; +/− = threshold; as to Chlorotic lesion @ app. Pnt: key: 0 = no phenotype; +/− = threshold; assay type: in vivo; parameters: 1st trifoliate leaf curl / Epinasty score: key: 0 = no phenotype; +/− = threshold; details: for 1st trifoliate leaf curl / Chlorotic lesion @ app. Pnt / Epinasty score: spot infiltration
Description: Conjugate forms of auxinic compounds when applied through spot infiltration, a needleless method to introduce exogenous agents into plant cells. Initially, various concentrations of analytical grade (98%+pure) IAA, 2,4-D, and dicamba were prepared as solutions that were applied directly to uni-foliate leaves of 9 day old soybean seedlings by spot infiltration in order to determine the range of auxinic response and severity.
Spot infiltration comprises applying a compound to be tested in composition that is applied to the surface of a plant, for example, to a leaf or other plant structure. For example, a method for testing a plant response to one or more compounds using spot infiltration comprises a) providing a composition comprising one or more compounds to be tested in a container having at least an opening for the compound enter and/or exit, and one or more elements for moving the composition into or out of the container; b) contacting at least one opening of the container with the surface of a plant and moving the composition comprising one or more compounds to at least the surface of the plant. A container and elements for moving the composition may comprise a syringe body and plunger. Moving the composition to the plant surface comprises contacting the surface with pressure sufficient for the composition to enter the cells of the plant. In an aspect, spot filtration testing comprises measuring an effect of the composition on the contacted plant and comparing that measure or effect to a plant that is not contacted with the composition.
Plant response phenotypes were documented at one day post-spot infiltration and subsequently every other day, up to nine days post treatment. […] In the studies described herein below, 5 replicate treatments for each conjugate form were conducted, along with appropriate negative controls.
Examples 9 and 10 utilized a spot infiltration method for the delivery of an herbicide directly to leaves of a plant. The method generally allows for the directed delivery of a variety of agents to a localized area of a plant, e.g. localized region of leaves, for screening or assessment purposes, e.g. to quickly assess the response of a plant to the agent. As used in the foregoing examples, the spot infiltration method was used to introduce specific herbicides or specific conjugates of the herbicides to seedling plant leaves. Following introduction of the herbicide or the appropriate conjugate, plants were observed daily for nine days for characteristics of epinasty, trifoliate leaf curly, chlorosis, and new growth recovery.
Briefly, a solution of the desired agent is prepared of the desired agent, e.g. as described above in Example 10, solutions (5% EtOH) of 1, 2.5 and 5 mM IAA. The solution is then drawn into a 1 mL BD™ slip-tip syringe, bulk, non-sterile syringe (e.g. Becton, Dickinson and Company, Product No. 301025) with 100 μL markings. The desired volume is then applied to the leaf, e.g. as described in Examples 9 and 10, with the tip of the syring against the leaf and positive pressure applied to the syringe plunger. Sufficient pressure is applied in order to infuse the area beneath the syringe opening, but not so much pressure as to cause a visible-to-the-eye puncture or hole to form in the leaf. Some run-off of solution around the syringe opening is expected. In the foregoing examples, two spots were applied to each of two leaves per seedling for soybean plants. […] In soybean, both spots per leaf were at the distal portion of the leaf about 1-2 cm apart. When the method was applied to Arabidopsis, two developmentally intermediate aged leaves were chosen per plant, and one spot infiltration was carried out per leaf.

[1] = LC-MS assay of GH3 conjugation of 2,4-D with Asp or Glu; assay type: biochemical; details: for Detected auxin conjugates: 2,4-D-Asp / Detected auxin conjugates: 2,4-D-Glu: LC-MS; for Detected auxin conjugates: 2,4-D-Asp: 2,4-D with Asp; for Detected auxin conjugates: 2,4-D-Glu: 2,4-D with Glu
Procedure, shortened: (§1)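 Rxn: 20 mM Tris-HCl pH 8.0, 5 mM MgCl2, 1 mM DTT, 5 mM ATP, 5 mM auxin, 5 mM Asp/Glu, 44–164 μg/mL purified His-GH3; 30° C., 3 h. MeOH quench, supernatant diluted 20×, LC-MS vs conjugate standards.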

[2] = LC-MS assay of GH3 conjugation of IAA with Asp or Glu; assay type: biochemical; details: for Detected auxin conjugates: IAA-Asp / Detected auxin conjugates: IAA-Glu: LC-MS; for Detected auxin conjugates: IAA-Asp: IAA with Asp; for Detected auxin conjugates: IAA-Glu: IAA with Glu
Procedure, shortened: as §1

[3] = LC-MS assay of GH3 conjugation of dicamba with Asp or Glu; assay type: biochemical; details: for Detected auxin conjugates: Dicamba-Asp / Detected auxin conjugates: Dicamba-Glu: LC-MS; for Detected auxin conjugates: Dicamba-Asp: dicamba with Asp; for Detected auxin conjugates: Dicamba-Glu: dicamba with Glu
Description: To detect and monitor the formation of acyl conjugates with 2,4-D or dicamba, a sensitive LC-MS method was developed using the respective amino acid conjugate standards. […] […] […] The supernatant was diluted 20× in water and then analyzed by LC-MS (AB Sciex 4000 QTrap coupled with Shimadzu Nexera UHPLC) using a Phenomenex Luna 3 μm Phenyl-Hexyl (00B-4256-Y0) column. The concentration of the conjugates was calculated based on the standards. Kinetic parameters were estimated by fitting initial velocity values to the Michaelis-Menten equation.
The GH3 superfamily conjugase activity analysis of IAA, 2,4-D or dicamba with Asp or Glu was done using LC-MS to analyze the final conjugate products as described in Example 1. Protein sequences of GH3 homologs (Table 3) were obtained from public databases (NCBI, http://www.ncbi.nlm.nih.gov/) by Blast analysis of AtGH3.17 protein sequence (accession # Q9FZ87). Coding sequences were designed for optimal expression in E. coli based on the protein sequences and synthesized. Synthesized coding sequences along with N-term his-tag coding sequences were cloned into a pET24a-based E. coli expression vector. The E. coli expression vectors were transformed into OverExpress C41(DE3) cells (Lucigen) for protein expression. Recombinant E. coli strains were inoculated into 5 ml LB media supplemented with 40 mg/L kanamycin and cultured overnight at 37° C. The overnight culture (0.5 mL) was inoculated into 50 mL LB medium plus 40 mg/L kanamycin and grown at 30° C. until OD600 reached 0.6. The cultures were induced with 0.2 mM IPTG at 16° C., 230 rpm overnight. Cells were harvested by centrifugation at 7,000 rpm for 10 mins. The cell pellet from 50 mL of cell culture was frozen and thawed twice and then lysed in 800 μL lysis buffer A (150 mM NaCl, 50 mM Tris-HCl pH 8.0, 5 mM MgCl2, 10% glycerol) plus 20 mM imidazole, 1 mM DTT, 0.2 mg/ml lysozyme, 1/200 protease inhibitor cocktail (EMD set3, EDTA free) and 1/2000 endonuclease. Lysate was then centrifuged at 13,000 rpm for 30 min at 4° C. Supernatant was loaded onto 200 μL Ni-NTA columns pre-equilibrated with buffer A with 20 mM imidazole at 4° C. Each column was then washed with (1) 2×800 μL of buffer A with 10 mM imidazole, (2) 2×800 μL of buffer A with 20 mM imidazole and (3) 2×200 μL of buffer A with 50 mM imidazole. Protein was eluted with 200 μL of buffer A with 250 mM imidazole. The concentration was measured by Bradford assay. Purified protein was used in conjugation reaction assays as described in example 1.

For `O=C(COc1ccc(Cl)cc1Cl)NC(Cc1ccccc1)C(=O)O` [2,4-D-Phe], the “1st trifoliate leaf curl” value (soybean seedlings; 100 μM) was 0, the “1st trifoliate leaf curl” value (soybean seedlings; 250 μM) was 0 and the “1st trifoliate leaf curl” value (soybean seedlings; 500 μM) was 0.

In the case of `O=C(Cc1c[nH]c2ccccc12)NC(Cc1ccccc1)C(=O)O` (centres unmarked) [IAA-Phe], the “1st trifoliate leaf curl” value (soybean seedlings; 1.0 mM) is reported as 0, the “Chlorotic lesion @ app. Pnt” value (soybean seedlings; 1.0 mM) is reported as 0 and the Epinasty score (soybean seedlings; 1.0 mM) is reported as 0. For the same molecule, the “1st trifoliate leaf curl” value (soybean seedlings; 2.5 mM) was 0, the “Chlorotic lesion @ app. Pnt” value (soybean seedlings; 2.5 mM) was 0 and the Epinasty score (soybean seedlings; 2.5 mM) was 0. The “1st trifoliate leaf curl” value (soybean seedlings; 5.0 mM) was 0, the “Chlorotic lesion @ app. Pnt” value (soybean seedlings; 5.0 mM) was 0 and the Epinasty score (soybean seedlings; 5.0 mM) was 0. For the same molecule, the “Plant response phenotype, soybean” value (soybean seedlings; 1, 2.5 and 5 mM, result in words) was “No discernable phenotype” and the “Lesion on leaf surface at point of application, soybean” value (soybean seedlings; dissolved in 50% EtOH, consistent with 50% EtOH alone control) was “necrotic lesion on leaf surface at point of application”.

B1: PtGH3-10: GH3 protein, accession EEE95291 (protein, listed as Populus trichocarpa)
chain: MEPKNTNGSSRSYEHDIISWFEDISKKAGQVQTETLRRILELNWGVEYLNKWLGDINIQDMDASALESLYTSLVPPASHADLEPYISRIADGDTVPLLTKQPITLLSLSSGTTDGRQKFVPFTDHSARTTLQIFSLAAAYRSRVYPTREGGRILEFIYSSKQFKTKGGLTAGTATTHYYASEEFKIKQEKTKCFTCSPQEVICGGDYEQSTYCHLLLGLFFCDQVEFITSTFAYSIVQAFTAFEDVWRDICNDIKHGTLSERINLAKMRKAVLSIISPNPSLASKIEENCKELETQNWLGLITKLWPNSKYVYSIMTGSMQPYFKKLRHYAGGLALVSADYGSTESWIGANVDPYLPPEDVTFAVIPTFSYYEFMPLYRENHYCGSAIDDFIEDEPVPLSKVKVGQEYEIVLTTFTGLYRCRLGDVVEVAGFHKGTPKLNFICRRKLILTINIDKNTEKDLQLVVEKGSQLLMSKARAELVDFTSHAELETQPGHYIIYWEIKGDVEEEVLGECCKKMDASFVDHGYVVSRRTKSIGPLELCIVKTGTFKKILEYFIGNGAALSQFKTPRCTSNHGLLKILNGSTIKRLYSTAYS
In the case of B1, the “Detected auxin conjugates: 2,4-D-Asp” value [1] is reported as “Yes”, the “Detected auxin conjugates: 2,4-D-Glu” value [1] is reported as “Yes” and the “Detected auxin conjugates: IAA-Asp” value [2] is reported as “Yes”. For the same molecule, the “Detected auxin conjugates: IAA-Glu” value [2] was “Yes”, the “Detected auxin conjugates: Dicamba-Asp” value [3] was “No” and the “Detected auxin conjugates: Dicamba-Glu” value [3] was “No”.

B2: PpGH3-2: GH3 protein, accession CAD42871 (protein, listed as Physcomitrella patens)
chain: MALRIENPYYKLLDTDEEIVEDFELMSRNARETQLELLRKILERNANVEYLQRQGLNGRTDEASFKACVPVSTYANIEADVDRIADGDTSPICCVDPPTSFALSSGTTGGKCKLIPRTDALLAQAMKAGQIGSVYRRRAFPRKHEGPPVVMSFQYAGRQFDTKSGLKAGTGTTNFYRSAAFKNAKSAPFSATSPVDIVLGYDVPQQMYCHLLCGLYRCQEVEQMSAIFAYMIVEPFRLLERVWRDICKDIREGTVNERVSDPELRSSVLKVLSPNPELADLIERECAKGWSGIIERLFPNINYIMSIFSGSMLPYVAPMRQYAGSVPLMNADYGASEAWIGINLDPRCPAEDASFTIIPNFAYFEFIPVNRDSAGYDSVEGDEIVGLTDVKVGQEYEIVLTTVGGLYRYRLGDIVKVTGFFNSTPKVAFVCRKGVVLSVNTDKTDEEELRLVVGKASLLLKESNMELADYSSYTDQDSQPGHYVIFWELRSHEHLDMDLLSECCKVLDQSFNNPYMRGRAARTIGPLELAIVKEGAFARLMEQFVRKNGVGASQYKVSRCFKNPATLKHFRDETIATLRSPDFPPELLAAWRPSTKIVG
With B2 the “kcat (hrs−1) 2,4-D-Asp” value ([1]; conjugation of 2,4-D with Asp by recombinant GH3 protein, 2,4-D-Asp product by LC-MS, 5 mM 2,4-D substrate) was 0.699 h⁻¹, the “kcat (hrs−1) 2,4-D-Glu” value ([1]; conjugation of 2,4-D with Glu by recombinant GH3 protein, 2,4-D-Glu product by LC-MS, 5 mM 2,4-D substrate) was 2.820 h⁻¹ and the “2,4-D conjugation activity with Asp or Glu” value ([1]; result in words) was “active GH3 conjugase for both IAA and 2,4-D”. The “kcat (hrs−1) IAA-Asp” value ([2]; conjugation of IAA with Asp by recombinant GH3 protein, IAA-Asp product by LC-MS) was 2.896 h⁻¹, the “kcat (hrs−1) IAA-Glu” value ([2]; conjugation of IAA with Glu by recombinant GH3 protein, IAA-Glu product by LC-MS) was 19.308 h⁻¹ and the “IAA conjugation activity with Asp or Glu” value ([2]; result in words) was “can also conjugate IAA to Asp and Glu; also recorded: active GH3 conjugase for both IAA and 2,4-D”. For the same molecule, the “Conjugation of dicamba with Glu” value ([3]; 16 hour reaction, result in words) was “could conjugate dicamba with Glu; also recorded: able to conjugate dicamba with glutamate”, the “Amount of dicamba-Glu conjugates versus amount of protein in the reaction” value ([3]; FIG. 7, result in words) was “Increased amount of dicamba-Glu was detected; also recorded: increases with increased amount of PpGH3-2 protein” and the “kcat (16 hrs^−1) dicamba-Glu” value ([3]; conjugation of dicamba with Glu, 16 hour reaction, protein conc. 983 μg/mL) was 0.024 16 hrs^−1.

B3: RcGH3-5: GH3 protein, accession EEF28472 (protein, listed as Ricinus communis)
chain: MTKNAERVQKETLKKILEENGSAEYLQNLGLDGRTDPESFKICVPICTHGDLEPYIQRIADGDSSPVLTGKPITTISLSSGTTQGKPKYVPFTDQLLDNTLQIFRTSFAYRNREFPLENGKALEFVFSSKQGKTKGGLAAGTATTNLFRNPNYKTALEELQFKSCSPREVIFGSDFHQSLYCHLLCGLIFREDIQFVFSTFAHSIVLAFRTFEQVWEELCDDIRNGELSSRITAPSIRTAMSHLLKPNAELADLIHTKCSGLSNWYGLIPELFPNAKYIYGIMTGSMEPYLKKLRHYAGELPLLSADYGASEGWIAANVNPLLPPELATFAVLPDIGYFEFIPLRRNGDHIYSEPKPIGLSDVKIGEEYEILVTNFAGFYRYRLGDVVKVMGFHNSTPELKFVCRRSLLLSINIDKNTEKDLQLVVEEAAKLLADEKLEVVDFSSLADRSTDPGHYVIFWEISGEPTAEVLQECCNCLDRSFLDAGYVTSRKVKAIGPLELRVVHRGTFQKILDHYLGLGAAVSQFKTPRCVGPANNVVSQILSNNVAKSYVSTAF
With B3 the “Detected auxin conjugates: 2,4-D-Asp” value [1] was “No”, the “Detected auxin conjugates: 2,4-D-Glu” value [1] was “No” and the “Detected auxin conjugates: IAA-Asp” value [2] was “Yes”. The “Detected auxin conjugates: IAA-Glu” value [2] was “No”, the “Detected auxin conjugates: Dicamba-Asp” value [3] was “No” and the “Detected auxin conjugates: Dicamba-Glu” value [3] was “No”.
